Laboratory results from the supplement of paper PMC10724198.
± gives the standard deviation of the averaged measurements.

System: Saccharomyces cerevisiae
Assay: protein stability index of tFT-peptide fusion (C-terminal peptide) (PSI (0-1 scale)); higher = more stable (slower turnover)
Details: genetic background: wild type; temperature: 30 C
Description: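 Multiplexed protein stability (MPS) profiling in S. cerevisiae. Random 12-aa peptides (tFT-X12 library) are fused to the C-terminus of a sfGFP-mCherry tandem fluorescent timer, after mCherry and a GGGS linker. Cells are FACS-sorted into 8 mCherry/sfGFP bins and deep-sequenced. The protein stability index (PSI) is the read-weighted bin average, scaled from 0 (unstable) to 1 (stable). Only peptides with >10 reads are reported; cells were grown at 30 °C in SC-His with glucose.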
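Further: PSI is a weighted mean of sequencing reads over stability bins, variants kept only with over 10 reads, mCherry proximal and sfGFP distal, peptide attached via GGGS linker.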

| Sequence | protein stability index |
| --- | --- |
| IPPCRSFSYIAT | 0.68 ± 0.048 |
| IPPLNQDPFCAS | 0.678 ± 0.017 |
| IPPSSLSSPLPP | 0.704 ± 0.019 |
| IPQIVRKLVPLT | 0.575 ± 0.007 |
| IPSVRATDGKIM | 0.649 ± 0.024 |
| IRCHSERKSWMY | 0.7 ± 0.065 |
| IRDLFHHFFLSV | 0.654 ± 0.038 |
| IRIIETPDSFYK | 0.795 ± 0.058 |
| IRIKKGMETGKL | 0.69 ± 0.0084 |
| IRIKKQRKEKRK | 0.734 ± 0.048 |
| IRLSVPGLTCVS | 0.504 ± 0.0031 |
| IRPFALSPSSLP | 0.658 ± 0.12 |
| IRRKYEGNKEQN | 0.721 ± 0.069 |
| IRSRSVTKYGWS | 0.606 ± 0.025 |
| IRVGVESGSRGR | 0.728 ± 0.22 |
| IRVLDVWRSGHL | 0.737 ± 0.0079 |
| ISPFPSFPPTLS | 0.734 ± 0.064 |
| ISPLPPVPAGLS | 0.6906 ± 0.0056 |
| ISPTPPAPSRPS | 0.688 ± 0.015 |
| ISRATMKARARG | 0.6522 ± 0.004 |
| ISVSGLVVSVGP | 0.649 ± 0.011 |
| ISWTRAPLAHPR | 0.879 ± 0.17 |
| ITLQGDWCRLVD | 0.715 ± 0.092 |
| ITWFRKVGAYGA | 0.644 ± 0.069 |
| IVFRLGRFCGRV | 0.709 ± 0.018 |

| Sequence | protein stability index |
| --- | --- |
| IVNLAQAEFVVT | 0.645 ± 0.039 |
| IVRTKLHPIGTS | 0.655 ± 0.043 |
| IVSPGSLAGCSV | 0.675 ± 0.034 |
| IVTGMGVVHIWR | 0.698 ± 0.04 |
| IVTSPRPPRCTS | 0.7193 ± 0.0051 |
| IVVRAGGCSVGW | 0.695 ± 0.081 |
| IYNDPYYLIKAR | 0.644 ± 0.018 |
| IYPRLGPHSLVC | 0.589 ± 0.016 |
| KAPCRVGARKGG | 0.688 ± 0.051 |
| KCKLLKIMKKKE | 0.636 ± 0.13 |
| KDANACSCDATS | 0.6774 ± 0.0026 |
| KDDKQRKQHGKK | 0.6632 ± 0.0046 |
| KDKKKNQNRKKN | 0.661 ± 0.038 |
| KDKRNEGSGLCK | 0.645 ± 0.022 |
| KDNCHSNQRELT | 0.663 ± 0.046 |
| KEEAKRPQSNET | 0.706 ± 0.02 |
| KEEAQKMKKIGE | 0.752 ± 0.096 |
| KEKSRNIKKRRK | 0.705 ± 0.079 |
| KEKYEQIDIGKN | 0.719 ± 0.066 |
| KELESKLISKKR | 0.75 ± 0.068 |
| KEREGSRKETKH | 0.694 ± 0.01 |
| KEYRTKNNKGRK | 0.654 ± 0.11 |
| KFHPRPPSRVLR | 0.6542 ± 0.0022 |
| KFWRCVVVGYGL | 0.641 ± 0.099 |
| KGHMYEFRKGVR | 0.68 ± 0.011 |

| Sequence | protein stability index |
| --- | --- |
| KGINALICTGSI | 0.6601 ± 0.0043 |
| KGKKRKKKRNFR | 0.68 ± 0.031 |
| KGKRMSRLYSCG | 0.667 ± 0.012 |
| KGRGKRRGARAT | 0.73 ± 0.053 |
| KGRNYVGRIRNN | 0.509 ± 0.024 |
| KGVWLGGGCGLR | 0.685 ± 0.025 |
| KHKAQQGSHGPQ | 0.616 ± 0.017 |
| KHTGFAGGMTWT | 0.707 ± 0.016 |
| KIANNEIEYARD | 0.598 ± 0.037 |
| KIERSKKKRRKG | 0.66 ± 0.079 |
| KIIKIHLFWGII | 0.478 ± 0.041 |
| KIIKIKKQGENK | 0.597 ± 0.016 |
| KIIQDCSSLSKK | 0.683 ± 0.033 |
| KIKKNKKKKRIN | 0.658 ± 0.026 |
| KIKKTITKNTKR | 0.726 ± 0.0082 |
| KIKNNIKKKKNR | 0.697 ± 0.024 |
| KILAVKIRRLYL | 0.532 ± 0.018 |
| KINRTKTAPITR | 0.724 ± 0.044 |
| KIRRKIRIYKRK | 0.629 ± 0.1 |
| KKCSNNPMTLRI | 0.655 ± 0.032 |
| KKEGEREQGVRW | 0.703 ± 0.037 |
| KKEKKKTKKEKR | 0.696 ± 0.067 |
| KKEKKQRKKING | 0.672 ± 0.075 |
| KKENKQEKKNMI | 0.709 ± 0.016 |
| KKEQRKKRQQKT | 0.6958 ± 0.0066 |

| Sequence | protein stability index |
| --- | --- |
| KKGRAEKKKRRK | 0.65 ± 0.051 |
| KKICLEWMLLQS | 0.7011 ± 0.0067 |
| KKIKKKRTEPQP | 0.694 ± 0.02 |
| KKIKKRNIKKKT | 0.67 ± 0.032 |
| KKKANEMGKNRE | 0.715 ± 0.028 |
| KKKEKKRGRRKV | 0.688 ± 0.073 |
| KKKIKKKKEKNT | 0.664 ± 0.032 |
| KKKIKKQKKKQI | 0.70912 ± 0.00033 |
| KKKKIEEKKDCK | 0.715 ± 0.023 |
| KKKKKEKKQERK | 0.69526 ± 0.00024 |
| KKKKKINRKKKK | 0.705 ± 0.14 |
| KKKKKKKKKKKN | 0.595 ± 0.034 |
| KKKKKKTTPKTN | 0.745 ± 0.038 |
| KKKKKKYRKKKK | 0.668 ± 0.0087 |
| KKKKKQRGKKQK | 0.722 ± 0.014 |
| KKKKKQRMKRNG | 0.674 ± 0.049 |
| KKKKKRGKTKKK | 0.734 ± 0.055 |
| KKKKKTKEINLK | 0.6698 ± 0.00079 |
| KKKKKTNKDKGQ | 0.66 ± 0.067 |
| KKKKMKKNKERK | 0.708 ± 0.049 |
| KKKKNKKNKKQY | 0.676 ± 0.074 |
| KKKKQNKKKIKK | 0.68 ± 0.086 |
| KKKKYKKKRKIK | 0.74 ± 0.015 |
| KKKNKEQTKKTK | 0.719 ± 0.024 |
| KKKNQGKKKIKK | 0.699 ± 0.085 |

| Sequence | protein stability index |
| --- | --- |
| KKKNTKKKNEQS | 0.725 ± 0.014 |
| KKKQKKKKHEQK | 0.7 ± 0.034 |
| KKKQMREQPKNE | 0.7315 ± 0.0047 |
| KKKRDKKGKKKQ | 0.697 ± 0.012 |
| KKKSKKKNKKKE | 0.766 ± 0.11 |
| KKKVEIKCRKRQ | 0.667 ± 0.0067 |
| KKLELLNRDRKV | 0.641 ± 0.042 |
| KKLKKTTNQTKK | 0.616 ± 0.022 |
| KKLNKNKSKINR | 0.683 ± 0.01 |
| KKMMQNKKQTEI | 0.727 ± 0.036 |
| KKNEKGSKGAEY | 0.66 ± 0.03 |
| KKNKKKKKRARY | 0.707 ± 0.038 |
| KKNYKNIEKKET | 0.658 ± 0.11 |
| KKQKKEKKKSHK | 0.757 ± 0.068 |
| KKQLIPPKHHQR | 0.661 ± 0.022 |
| KKRKKKKIIQTK | 0.65 ± 0.11 |
| KKRNKNKKTKEE | 0.68 ± 0.0099 |
| KKRRPKINEIKE | 0.643 ± 0.013 |
| KKRVHNRKEETE | 0.691 ± 0.091 |
| KKTERRNKKKIR | 0.695 ± 0.031 |
| KKTKKKKQTKRK | 0.677 ± 0.038 |
| KKVRTNTSKEIK | 0.692 ± 0.15 |
| KKWKKKNNKRNG | 0.707 ± 0.17 |
| KLDDEVLFKRNI | 0.692 ± 0.057 |
| KLKEDRRIGRNR | 0.668 ± 0.033 |

| Sequence | protein stability index |
| --- | --- |
| KLKTTEKTNPRE | 0.805 ± 0.14 |
| KLQKTKNPKSNT | 0.6624 ± 0.0046 |
| KLTKGKIQLHIK | 0.593 ± 0.017 |
| KMIDNKQKSVAV | 0.675 ± 0.012 |
| KMRKIRSKRLKW | 0.681 ± 0.028 |
| KNDKHQTRKSTT | 0.703 ± 0.11 |
| KNKENLNINNKR | 0.747 ± 0.0078 |
| KNKQQKKNKQKR | 0.643 ± 0.045 |
| KNKRKTNLRKKT | 0.6961 ± 0.00039 |
| KNMNQIKKKNRE | 0.664 ± 0.061 |
| KNNERIDKRKKI | 0.726 ± 0.063 |
| KNNKEKQKKKKR | 0.663 ± 0.084 |
| KNNKNQKELDTK | 0.677 ± 0.065 |
| KNPSLSSPLPHP | 0.6908 ± 0.0041 |
| KNSKNIRNKTNE | 0.711 ± 0.017 |
| KNSTKHIKNEKN | 0.774 ± 0.044 |
| KNTRLKKEKVSR | 0.829 ± 0.23 |
| KPCGRAEERRSG | 0.674 ± 0.035 |
| KPLDPNRHVIPG | 0.652 ± 0.021 |
| KPLLSPPTIFPL | 0.711 ± 0.032 |
| KPQQKQEKLTNP | 0.736 ± 0.043 |
